T1: DmCPD1Bs (D. melanogaster carboxypeptidase D variant 1B short) (Drosophila melanogaster, UniProt P42787)
T1 sequence (P42787 26-435 isoform P42787-7): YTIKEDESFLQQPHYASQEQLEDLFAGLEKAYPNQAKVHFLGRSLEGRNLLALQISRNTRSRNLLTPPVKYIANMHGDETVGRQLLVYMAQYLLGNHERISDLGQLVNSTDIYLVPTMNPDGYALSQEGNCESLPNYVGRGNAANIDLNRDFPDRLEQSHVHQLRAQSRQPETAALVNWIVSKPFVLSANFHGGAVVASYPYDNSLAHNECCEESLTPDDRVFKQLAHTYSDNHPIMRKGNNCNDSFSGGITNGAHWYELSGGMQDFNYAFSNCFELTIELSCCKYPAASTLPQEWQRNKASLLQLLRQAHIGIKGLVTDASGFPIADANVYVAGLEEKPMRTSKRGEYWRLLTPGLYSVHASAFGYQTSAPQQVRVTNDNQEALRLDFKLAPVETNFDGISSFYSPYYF


What was measured:
[1] = target: T1, DmCPD1Bs (D. melanogaster carboxypeptidase D variant 1B short); assay: crystal structure at […] Å; assay type: biochemical
[2] = recombinant expression yield in P. pastoris; conditions: glycan lost; control: wild type
purified protein = substrate: N=C(N)NCCC[C@H](NC(=O)CNC(=O)c1ccccc1)C(=O)O; assay: purified protein; conditions: Zn2+

Row | Molecule | Ki [1] [nM] | expression_or_secretion [2] | Km (purified protein) [µM] | kcat (purified protein) [s⁻¹] | kcat/Km (purified protein) [M⁻¹ s⁻¹]
1 | N=C(N)NCCSC(CC(=O)O)C(=O)O (stereo not drawn) [GEMSA, 2-guanidinoethyl-mercaptosuccinic acid] | 670 ± 80 | – | – | – | –
2 | DmCPD1Bs (carboxypeptidase D variant 1B short, svr-PF): N269Q | – | decreases | – | – | –
3 | DmCPD1Bs (carboxypeptidase D variant 1B short, svr-PF): N133Q | – | decreases | – | – | –
4 | human CPB (hCPB) (Homo sapiens) (protein) ATGHSYEKYNKWETIEAWTQQVATENPALISRSVIGTTFEGRAIYLLKVGKAGQNKPAIFMDCGFHAREWISPAFCQWFVREAVRTYGREIQVTELLDKLDFYVLPVLNIDGYIYTWTKSRFWRKTRSTHTGSSCIGTDPNRNFDAGWCEIGASRNPCDETYCGPAAESEKETKALADFIRNKLSSIKAYLTIHSYSQMMIYPYSYAYKLGENNAELNALAKATVKELASLHGTKYTYGPGATTIYPAAGGSDDWAYDQGIRYSFTFELRDTGRYGFLLPESQIRATCEETFLAIKYVASYVLEHLY | – | – | 485.3 ± 62.5 | 254 ± 11.9 | 523000
5 | DmCPD1Bs (D. melanogaster carboxypeptidase D variant 1B short) (Drosophila melanogaster) (protein) YTIKEDESFLQQPHYASQEQLEDLFAGLEKAYPNQAKVHFLGRSLEGRNLLALQISRNTRSRNLLTPPVKYIANMHGDETVGRQLLVYMAQYLLGNHERISDLGQLVNSTDIYLVPTMNPDGYALSQEGNCESLPNYVGRGNAANIDLNRDFPDRLEQSHVHQLRAQSRQPETAALVNWIVSKPFVLSANFHGGAVVASYPYDNSLAHNECCEESLTPDDRVFKQLAHTYSDNHPIMRKGNNCNDSFSGGITNGAHWYELSGGMQDFNYAFSNCFELTIELSCCKYPAASTLPQEWQRNKASLLQLLRQAHIGIKGLVTDASGFPIADANVYVAGLEEKPMRTSKRGEYWRLLTPGLYSVHASAFGYQTSAPQQVRVTNDNQEALRLDFKLAPVETNFDGISSFYSPYYF | – | – | 1112 ± 167 | 38.8 ± 4.1 | 34900

Reference: article PMC7089606 (Journal of Molecular Biology, 2010)
